According to PMC10748074:

Target: Keap1 labeled with Cy3 (UniProt Q14145)
Test: MST

UniProt Q14145, sequence (Q14145 whole entry): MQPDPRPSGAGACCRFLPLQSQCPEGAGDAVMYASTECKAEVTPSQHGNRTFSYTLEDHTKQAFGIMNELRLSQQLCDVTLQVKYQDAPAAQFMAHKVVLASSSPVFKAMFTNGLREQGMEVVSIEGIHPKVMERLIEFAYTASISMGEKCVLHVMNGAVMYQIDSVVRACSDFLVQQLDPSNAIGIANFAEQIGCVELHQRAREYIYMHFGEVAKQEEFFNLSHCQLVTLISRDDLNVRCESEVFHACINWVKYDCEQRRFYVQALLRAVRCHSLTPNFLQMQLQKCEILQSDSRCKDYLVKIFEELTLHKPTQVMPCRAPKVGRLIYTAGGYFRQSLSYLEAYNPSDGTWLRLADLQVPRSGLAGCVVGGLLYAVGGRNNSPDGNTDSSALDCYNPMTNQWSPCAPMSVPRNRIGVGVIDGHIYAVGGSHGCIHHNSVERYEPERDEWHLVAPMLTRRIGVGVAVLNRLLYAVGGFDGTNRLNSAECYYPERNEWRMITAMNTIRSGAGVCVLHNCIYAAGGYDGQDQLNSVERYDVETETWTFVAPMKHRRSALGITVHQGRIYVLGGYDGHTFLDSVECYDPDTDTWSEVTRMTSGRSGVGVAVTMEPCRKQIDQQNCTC

Substance | Kd
free translocation domain of diphtheria toxin, DTox (from UniProt P00588 33-567) (domain or fragment) | > 1000 nM
MNT0, control modular nanotransporter lacking the antiKeap1 monobody fragment | 93 nM
